What all share (format): cell-based, murine
The subject of assay [1] is tyrosinase. Briefly: Northern blotting of tyrosinase RNA in melan-a cells. The settings on record: for RNA level of tyrosinase: 5 days. The procedure:
These techniques were performed as described previously (Aroca et al., 1993). Briefly, 2.0 μg of mRNA, isolated using a total RNA isolation kit and mRNA purification kit (Promega, Madison, Wis.), were electrophoresed and then blotted to Sure-Blot nylon membranes (Oncor, Gaithersburg, Md.), hybridized with ^32P-labeled probes, dehybridized and rehybridized with other probes again as necessary. TYRS-J, the probe specific for tyrosinase, was kindly provided by Drs. H. Yamamoto and T. Takeuchi, Sendai, Japan and is described in Yamamoto et al Japan J. Genetics Vol 62:271-274, 1987. pMT4, specific for TRP1, was provided by Dr. S. Shibahara, Sendai, Japan and is described in Shibahara, S. et al Nucleic Acid Res. Vol 14:2413-2427, 1986. TRP2a, specific for TRP2 was provided by Dr. I. Jackson, Edinburgh, Scotland and is described in Jackson, I et al. EMBO Vol 11:527-535, 1992. gp100, specific for silver, was provided by Dr. Y. Kawakami, Bethesda, Md. and is described in Kawakami et al PNAS, Vol. 91, 6458-6462, 1994.
Recombinant agouti protein was purified from baculovirus system by Dr. Michael Ollmann in Dr. Gregory Barsh's laboratory by methods known in the art. 2×10^6 cells were seeded per 15 cm diameter dish. The medium was changed everyday, and fresh agouti protein and/or αMSH added everyday usually at 10 nM. To examine transcriptional regulation, total RNA was isolated and Northern blotting performed by methods described in Example 1. The A26 probe to the MSH-R was provided by Dr. R. Cone and is described in Mountjoy et al. Science 257:1248-1251, 1992. At the translational level, metabolic labeling was used in conjunction with immunoprecipitation as described in Example 1. Western blotting and enzyme assay was used to examine function.
First, it was determined whether the agouti protein had any effect on tyrosinase expression by Northern blotting. After 24 hours, the cells were harvested, total RNA isolated and hybridized with a probe for tyrosinase and detected by a phosphoimager. The activity of each band was measured by phosphoimager and the % control was corrected using GAPDH as a standard. […] It should be noted that in vivo, pheomelanin is synthesized within 24 hours after agouti RNA is apparent. Longer incubation times were also examined. 10 nM of agouti protein was added for 1, 2 or 4 days.
Total RNA was extracted from cells using an RNeasy total RNA isolation kit (QIAGEN, Catsworth, Calif.), following the manufacturer's instructions. 20 μg of total RNA was denatured, electrophoresed through 1.0% agarose gels, and transferred overnight at 23° C. to SureBlot nylon hybridization membranes (Oncor, Gaithersburg, Md.) in the standard manner. […]

Assay [2] has as its system tyrosinase. Briefly: Tyrosine hydroxylase enzyme assay on extracts of treated melan-a cells. The settings on record: extracts of melan-a cells cultured 5 days; 10 nM. The method, then:
(§1) Assays for melanogenic catalytic activities as described below were carried out at pH 6.8, 37° C. for 60 minutes. (1) Tyrosine hydroxylase activity was measured using the [^3H]tyrosine assay (Hearing and Ekel, 1976; Hearing, 1987). This method specifically measures the tritiated water produced during the hydroxylation of tyrosine to DOPA. (2) DOPA oxidase activity was measured using incorporation of [3-^14C]DOPA into acid-insoluble melanin as detailed previously (Aroca et al., 1993). (3) DOPAchrome tautomerase activity was measured by HPLC as the disappearance of DOPAchrome substrate and the production of DHICA rather than DHI; data are converted to pmol products by comparison with known standards. The HPLC assay was detailed previously (Palumbo et al., 1987; Tsukamoto et al., 1992). (4) DHI oxidase and DHICA oxidase activities were measured by HPLC as the disappearance of these substrates from reaction mixtures compared to controls for spontaneous auto-oxidation; data are converted to pmol by comparison with known standard (Aroca et al., 1993). (5) Melanin production was measured using incorporation of [^14C]tyrosine into acid-insoluble melanin, also as detailed previously (Hearing and Ekel, 1976; Hearing, 1987); pmol melanin produced are calculated from the radioactive product. […]

The subject of the next assay is TRP2. Briefly: DOPAchrome tautomerase enzyme assay on extracts of treated melan-a cells. The settings on record: extracts of melan-a cells cultured 5 days; 10 nM. The procedure:
as §1

For the next assay, the system named is melan-a cells. Briefly: Melanin production assay on extracts of treated melan-a cells. The settings on record: extracts of melan-a cells cultured 5 days; 10 nM. The procedure: as §1

As to “α-melanocyte stimulating hormone [MSH, reference compound]”, the “RNA level of tyrosinase” value in the assay with tyrosinase [1] (10 nM) is “almost a twofold increase”. Moreover, the tyrosine hydroxylase in the assay on tyrosinase [2] was determined as 8.7 ± 2.8 pmol/μg protein/hr. The same molecule yielded a DOPA chome tautomerase with TRP2 of 555.0 pmol/μg protein/hr. In addition, the melanin production in the assay with melan-a cells is 6.3 ± 0.5 pmol/μg protein/hr.

B1: agouti protein: Recombinant murine agouti signal protein purified from a baculovirus expression system (protein)
chain: MDVTRLLLATLVSFLCFFTVHSHLALEETLGDDRSLRSDSSMNSLDFSSVSIVALNKKSKKISRKEAEKRKRSSKKKASMKKVARPPPPSPCVATRDSCKPPAPACCDPCASCQCRFFGSACTCRVLNPNC
Consider B1, for which the “expression of tyrosinase (RNA)” value in the assay with tyrosinase [1] (10 nM, 2 or 4 days incubation) was “complete inhibition by day 2”. Also, in the assay on tyrosinase [1] (10 nM), the “RNA level of tyrosinase” value was “nearly a fivefold decrease”. In addition, the “expression of tyrosinase (RNA, % control corrected using GAPDH)” value with tyrosinase [1] (24 hours, 10 nM and 1 nM) is given as “significant dose dependent decreases”. This molecule showed a tyrosine hydroxylase in the assay on tyrosinase [2] of −1.2 ± 0.2 pmol/μg protein/hr. The molecule further displayed a DOPA chome tautomerase with TRP2 of 0.0 pmol/μg protein/hr. This molecule gave a melanin production with melan-a cells of 0.22 ± 0.0 pmol/μg protein/hr.

The values are drawn from patent US6579848B1, “Depigmenting activity of agouti signal protein and peptides thereof” (The United States of America as represented by the …, priority 1995, dated 2003).
